Columns and labels:
[1] = target: T1, GST–human PPARγ (full-length PPARγ–GST fusion protein) (human, UniProt P37231 1-505); assay: pull-down
T1 sequence (looked up): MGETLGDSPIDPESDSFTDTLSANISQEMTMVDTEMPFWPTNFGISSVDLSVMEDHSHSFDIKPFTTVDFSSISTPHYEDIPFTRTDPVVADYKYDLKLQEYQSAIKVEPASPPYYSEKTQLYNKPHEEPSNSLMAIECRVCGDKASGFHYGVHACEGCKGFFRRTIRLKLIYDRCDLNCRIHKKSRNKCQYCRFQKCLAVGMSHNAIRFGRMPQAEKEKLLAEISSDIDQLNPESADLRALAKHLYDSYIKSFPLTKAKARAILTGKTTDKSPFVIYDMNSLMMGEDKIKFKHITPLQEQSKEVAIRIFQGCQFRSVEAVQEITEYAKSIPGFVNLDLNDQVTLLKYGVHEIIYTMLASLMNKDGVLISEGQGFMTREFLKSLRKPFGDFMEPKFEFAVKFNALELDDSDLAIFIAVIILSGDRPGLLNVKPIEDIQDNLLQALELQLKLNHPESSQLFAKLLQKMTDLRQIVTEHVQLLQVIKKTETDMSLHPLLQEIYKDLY

[2] = target: T1, GST–human PPARγ (full-length PPARγ–GST …); assay: pull-down; remark: listed apart in the source

fold binding relative to the vehicle control, with 50 μM Pio [1]: 17 fold | fold binding relative to the vehicle control, with 50 μM FPP [2]: 6.1 fold | fold binding relative to the vehicle control, with 100 μM FPP [2]: 15 fold
B1: SRC-1-S2, a truncated SRC-1 (steroid receptor co-activator-1) protein (amino acids 623–770) (domain or fragment, human, UniProt Q15788 623-770, looked up)
chain: DSKYSQTSHKLVQLLTTTAEQQLRHADIDTSCKDVLSCTGTSNSASANSSGGSCPSSHSSLTERHKILHRLLQEGSPSDITTLSVEPDKKDSASTSVSVTGQVQGNSSIKLELDASKKKESKDHQLLRYLLDKDEKDLRSTPNLSLDD

Reference: article PMC3253524 (Biochemical Journal, 2011)
